# Like-named read-outs stand apart in the source and are kept apart here.
# Key:
# Cdc5-R1-R2-D3ΔL [1] = target: T1, Cdc5-R1-R2-D3ΔL (Schizosaccharomyces pombe, UniProt P39964 5-208, del111-146); assay: pull-down
# Cdc5-R1-R2-D3ΔL [2] = target: T1, Cdc5-R1-R2-D3ΔL; assay: pull-down; remark: listed apart in the source
Binder,binding result (Cdc5-R1-R2-D3ΔL [1]),binding result (Cdc5-R1-R2-D3ΔL [2])
AAGUGUAG (ssRNA) [Bi-U2 ssRNA],binds,–
CAGAGAA (ssRNA) [Bi-U6 ssRNA],binds,–
CGUACACCAUCAGGGUACG (structured_RNA) [Bi-MS2 dsRNA],–,binds

# Reference: paper PMC4204884
